Data taken from patent publication US20110301093.

T1: mutant BH3 peptide in which Thr119 was substituted to alanine (T119A)
T1 chain: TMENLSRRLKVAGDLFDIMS

T2: peptide corresponding to Beclin's BH3 domain (aa 108-127)
T2 chain: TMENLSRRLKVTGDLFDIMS

B1: Flag-tagged DAPk (protein)
chain: MTVFRQENVDDYYDTGEELGSGQFAVVKKCREKSTGLQYAAKFIKKRRTKSSRRGVSREDIEREVSILKEIQHPNVITLHEVYENKTDVILILELVAGGELFDFLAEKESLTEEEATEFLKQILNGVYYLHSLQIAHFDLKPENIMLLDRNVPKPRIKIIDFGLAHKIDFGNEFKNIFGTPEFVAPEIVNYEPLGLEADMWSIGVITYILLSGASPFLGDTKQETLANVSAVNYEFEDEYFSNTSALAKDFIRRLLVKDPKKRMTIQDSLQHPWIKPKDTQQALSRKASAVNMEKFKKFAARKKWKQSVRLISLCQRLSRSFLSRSNMSVARSDDTLDEEDSFVMKAIIHAINDDNVPGLQHLLGSLSNYDVNQPNKHGTPPLLIAAGCGNIQILQLLIKRGSRIDVQDKGGSNAVYWAARHGHVDTLKFLSENKCPLDVKDKSGEMALHVAARYGHADVAQLLCSFGSNPNIQDKEEETPLHCAAWHGYYSVAKALCEAGCNVNIKNREGETPLLTASARGYHDIVECLAEHGADLNACDKDGHIALHLAVRRCQMEVIKTLLSQGCFVDYQDRHGNTPLHVACKDGNMPIVVALCEANCNLDISNKYGRTPLHLAANNGILDVVRYLCLMGASVEALTTDGKTAEDLARSEQHEHVAGLLARLRKDTHRGLFIQQLRPTQNLQPRIKLKLFGHSGSGKTTLVESLKCGLLRSFFRRRRPRLSSTNSSRFPPSPLASKPTVSVSINNLYPGCENVSVRSRSMMFEPGLTKGMLEVFVAPTHHPHCSADDQSTKAIDIQNAYLNGVGDFSVWEFSGNPVYFCCYDYFAANDPTSIHVVVFSLEEPYEIQLNQVIFWLSFLKSLVPVEEPIAFGGKLKNPLQVVLVATHADIMNVPRPAGGEFGYDKDTSLLKEIRNRFGNDLHISNKLFVLDAGASGSKDMKVLRNHLQEIRSQIVSVCPPMTHLCEKIISTLPSWRKLNGPNQLMSLQQFVYDVQDQLNPLASEEDLRRIAQQLHSTGEINIMQSETVQDVLLLDPRWLCTNVLGKLLSVETPRALHHYRGRYTVEDIQRLVPDSDVEELLQILDAMDICARDLSSGTMVDVPALIKTDNLHRSWADEEDEVMVYGGVRIVPVEHLTPFPCGIFHKVQVNLCRWIHQQSTEGDADIRLWVNGCKLANRGAELLVLLVNHGQGIEVQVRGLETEKIKCCLLLDSVCSTIENVMATTLPGLLTVKHYLSPQQLREHHEPVMIYQPRDFFRAQTLKETSLTNTMGGYKESFSSIMCFGCHDVYSQASLGMDIHASDLNLLTRRKLSRLLDPPDPLGKDWCLLAMNLGLPDLVAKYNTSNGAPKDFLPSPLHALLREWTTYPESTVGTLMSKLRELGRRDAADFLLKASSVFKINLDGNGQEAYASSCNSGTSYNSISSVVSR
B2: DAPk's catalytic domain (DK1) (protein)
chain: MTVFRQENVDDYYDTGEELGSGQFAVVKKCREKSTGLQYAAKFIKKRRTKSSRRGVSREDIEREVSILKEIQHPNVITLHEVYENKTDVILILELVAGGELFDFLAEKESLTEEEATEFLKQILNGVYYLHSLQIAHFDLKPENIMLLDRNVPKPRIKIIDFGLAHKIDFGNEFKNIFGTPEFVAPEIVNYEPLGLEADMWSIGVITYILLSGASPFLGDTKQETLANVSAVNYEFEDEYFSNTSALAKDFIRRLLVKDPKKRMTIQDSLQHPWIKPKDTQQALS

What was measured:
[1] = target: T1, mutant BH3 peptide in which Thr119 was …
[2] = target: T2, peptide corresponding to Beclin's BH3 …

Chain of GST-Beclin-1 (chain, as listed by the source): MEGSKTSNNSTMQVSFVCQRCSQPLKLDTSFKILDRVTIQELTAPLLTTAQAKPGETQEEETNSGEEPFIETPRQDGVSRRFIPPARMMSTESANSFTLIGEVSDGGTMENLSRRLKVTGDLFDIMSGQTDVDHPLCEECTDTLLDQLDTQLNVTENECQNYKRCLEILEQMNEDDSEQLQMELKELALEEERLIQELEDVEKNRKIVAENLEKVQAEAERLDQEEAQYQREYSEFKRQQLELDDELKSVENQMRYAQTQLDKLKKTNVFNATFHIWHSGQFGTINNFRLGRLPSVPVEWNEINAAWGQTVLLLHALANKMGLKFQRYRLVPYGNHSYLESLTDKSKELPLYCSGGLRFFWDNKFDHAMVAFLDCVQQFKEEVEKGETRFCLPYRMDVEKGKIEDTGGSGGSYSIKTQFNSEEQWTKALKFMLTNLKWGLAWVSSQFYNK
Chain of Flag-tagged Beclin-1 (chain, as listed by the source): as above

Protein	in vitro kinase assay, phosphorylation ([γ-33P]ATP, autoradiogram) (GST-Beclin-1)	in vitro kinase assay, phosphorylation ([γ-33P]ATP, autoradiogram) (Flag-tagged Beclin-1)	peptide phosphorylation, filter assay [1]	peptide phosphorylation, filter assay (total counts against substrate concentration) [2]
B1	GST-Beclin-1, but not GST alone, was phosphorylated by DAPk	The phosphorylation by Flag-tagged (60 ng) DAPk was also observed when Flag-tagged Beclin-1 (250 ng), immunoprecipitated from HEK293T cells, was used as a substrate		
B2			Changing Thr119 to alanine strongly inhibited the extent of peptide phosphorylation	DAPk phosphorylates Beclin's BH3 peptide in a dose-dependent manner
